Assay results from US20210292393A1 (published 2021).
Residue numbers refer to the chain shown, from its start.

B1: antibody 500 (antibody, V domains shown)
VH: QVQLVESGGGVVQPGRSLRLSCAASGFTFSSYAMHWVRQAPGKGLEWVAVISYDGSNKYYADSVKGRFTISRDNSKNTLYLQMNSLRAEDTAVYYCAKSRDGYKLFDIWGQGTMVTVSS
VL: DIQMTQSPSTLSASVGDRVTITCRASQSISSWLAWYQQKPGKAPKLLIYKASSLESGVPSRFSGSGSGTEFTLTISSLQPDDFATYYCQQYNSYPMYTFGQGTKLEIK
notes: also called mAb 500
B2: antibody 535 (antibody, V domains shown)
VH: EVQLVESGGGLIQPGGSLRLSCAASGFTVSSNYMSWVRQAPGKGLEWVSVIYSGGSTYYADSVKGRFTISRDNSKNTLYLQMNSLRAEDTAVYYCARDLTEEGDFWSASSYRRYYYYGMDVWGQGTTVTVSS
VL: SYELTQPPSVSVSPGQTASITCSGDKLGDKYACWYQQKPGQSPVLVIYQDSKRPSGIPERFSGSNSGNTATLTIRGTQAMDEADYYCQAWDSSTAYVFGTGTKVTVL
B3: antibody 520 (antibody, V domains shown)
VH: QVQLVESGGGVVQPGRSLRLSCAASGFTFSSYAMHWGRQAPGKGLEWVAVISYDGSNKYYADSVKGRFTISRDNSKNTLYLQMNSLRAEDTAVYYCARDGGSGWLLVGNWFDPWGQGTLVTVSS
VL: QSALTQPASVSGSPGQSITISCTGTSSDVGGYNYVSWYQQHPGKAPKLMIYDVSNRPSGVSNRFSGSKSGNTASLTISGLQAEDEADYYCSSYTSSITLYVFGTGTKVTVL
notes: also called mAb 520
B4: antibody 506 (antibody, V domains shown)
VH: QITLKESGPTLVKPTQTLTLTCTFSGFSLSTSGVGVGWIRQPPGKALEWLALIYWDDDKRYSPSLKSRLTITKDTSKNQVVLTMTNMDPVDTATYYCAHHSLSSIFDYWGQGTLVTVSS
VL: QSALTQPASVSGSPGQSITISCTGTSSDVGDYNYVSWYQQHPGKAPKLMIYEVSNRPSGVSNRFSGSKSGNTASLTISGLQAEDEADYYCSSYTSSSTVFGGGTKLTVLG
B5: antibody 513 (antibody, V domains shown)
VH: QVQLVESGGGVVQPGRSLRLSCAASGFTFSSYAMHWVRQAPGKGLEWVAVISYDGSNKYYADSVKGRFTISRDNSKNTLYLQMNSLRAEDTAVYYCARAGSGSYYNWFDPWGQGTLVTVSS
VL: B3 VL with D52E, I97S, L99P
B6: antibody 557 (antibody, V domains shown)
VH: B5 VH with A99M, G100Y, Y105R, N106G, W107G, P110Y
VL: not shown
B7: antibody 518 (antibody, V domains shown)
VH: B5 VH with R98K, A99P, G100Y, Y105W, N106D, W107A, P110I, L116M
VL: not shown
B8: antibody 515 (antibody, V domains shown)
VH: EVQLVESGGGLVKPGGSLRLSCAASGFTFSSYSMNWVRQAPGKGLEWVSSISSSSSYIYYADSVKGRFTISRDNAKNSLYLQMNSLRAEDTAVYYCASIAAAGTLYYYYGMDVWGQGTTVTVSS
VL: not shown
B9: antibody 502 (antibody, V domains shown)
VH: QVQLVQSGAEVKKPGASVKVSCKASGYTFTSYYMHWVRQAPGQGLEWMGIINPSGGSTSYAQKFQGRVTMTRDTATSTVYMELSSLRSEDTAVYYCARGGGQISMIIVVMDDAFDIWGQGTMVTVSS
VL: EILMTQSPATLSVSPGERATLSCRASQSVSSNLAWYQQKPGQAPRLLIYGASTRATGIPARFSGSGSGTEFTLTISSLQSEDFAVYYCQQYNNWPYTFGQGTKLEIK
B10: antibody 552 (antibody, V domains shown)
VH: QVQLVQSGAEVKKPGSSVKVSCKASGGTFSSYGISWVRQAPGQGLEWMGRIIPILGIANYAQKFQGRVTITADKSTSTAYMELSSLRSEDTAVYYCARAVYAAGDDDYYYYYGMDVWGQGTTVTVSS
VL: SYELTQPPSVSVSPGQTARITCSGDALPKQYAYWYQQKPGQAPVVVIYKDSDRPSGIPERFSGSSSGTTVTLTISGVQAEDEADYYCQSADSSGTYQVFGTGTKVSVL
B11: antibody 501 (antibody, V domains shown)
VH: QVQLVQSGAEVKKPGASVKVSCKASGYTFTSYYVHWVRQAPGQSLEWMGVISPSTGSTTYAQNFQGRVTMTRDTSTTTVYMELSSLRSEDTAVYYCARDDYYDSTRYFDLWGRGTLVTVSS
VL: QSALTQPASVSGSPGQSISFSCTGTSSDIGAYNYVSWYQQHPGRAPKLMIYDVGNRPSGVSNRFSGSKSGNTASLTISGLQAEDEADYYCSSYTSSSTQVFGTGTKVTVL
B12: antibody 528 (antibody, V domains shown)
VH: QVQLVQSGAEVKKPGSSVKVSCKASGGTFNSNSISWVRQAPGQGLEWMGRIIPILDITMYARKFQGRVTISADKSTGTAYMDLSSLRSEDTAVYYCATDRDDSSGDYYYGMDVWGQGTTVTVSS
VL: DIQMTQSPSSLSASVGDRVTITCRASLSISNYLNWYQQKPGKAPNLLIYAASTLQSGVPSRFSGSGSGTDFTLTISSLQPEDFATYYCQQTYITRWTFGQGTKVEIK
notes: also called mAb 528
B13: antibody 530 (antibody, V domains shown)
VH: EVQLVESGGGLVQPGGSLRLSCAASGFTFSSYWMSWVRQAPGKGLEWVANIKQDGSEKYYVDSVKGRFTISRDNAKNSLYLQMNSLRAEDTAVYYCAREPQLWSEYYFDYWGQGTLVTVSS
VL: DIQMTQSPSSLSASVGDRVTITCRASQGISSWLAWYQQKPEKAPKSLIYAASSLQSGVPSRFSGSGSGTDFTLTISSLQPEDFATYYCQQYNSYPPTFGQGTRLEIK
notes: also called mAb 530
B14: antibody 554 (antibody, V domains shown)
VH: QVQLVESGGGVVQPGRSLRLSCAASGFTFSSYAMHWVRQAPGKGLEWVAVISYDGSNKYYADSVKGRFTISRDNSKNTLYLQMNSLRAEDTAVYYCARPQGGNYYYYGMDVWGQGTTVTVSS
VL: B13 VL with L11V, E41G, S46L, Y91A, Y94F, P96L, Q100G, R103K, L104V
B15: antibody 525 (antibody, V domains shown)
VH: QVQLVESGGGVVQPGRSLRLSCAASGFTFSSYAMHWVRQAPGKGLEWVTVISYNGRNKYYADSVKGRFTISRDNSKNTLYLQMNSLRAEDTAVYWCAREGLGAIVVGLDYWGQGTLVIVSS
VL: not shown
B16: antibody 465 (antibody, V domains shown)
VH: QITLKESGPTLVKPTQTLTLTCTFSGFSLSTSGVGVGWIRQPPGKALEWLALIYWDDDKHYSPSLKSRLTITKDTSKNQVVLTMTNMDPVDTATYYCAHMYYDILSGYYYGMDVWGQGTTVTVSS
VL: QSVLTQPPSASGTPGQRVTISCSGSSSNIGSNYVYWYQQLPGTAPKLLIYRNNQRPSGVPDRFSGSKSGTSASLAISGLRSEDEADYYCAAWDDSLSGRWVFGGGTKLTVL
B17: antibody 461 (antibody, V domains shown)
VH: EVQLVESGGGLVKPGGSLRLSCAASGFTFSSYSMNWVRQAPGKGLEWVSSISSSSSYIYYADSVKGRFTISRDNAKNSLYLQMNSLRAEDTAVYYCASNPAAGQEAYYYYGMDVWGQGTTVTVSS
VL: not shown
B18: antibody 462 (antibody, V domains shown)
VH: QVQLVESGGGVVQPGRSLRLSCAASGFTFSSYGMHWVRQAPGKGLEWVAVIWYDGNNKYYADSVKGRFTISRDNSKNTLYLQMNSLRAEDTAVYYCAKDPTWFGELPSYYYYGMDVWGQGTTVTVSS
VL: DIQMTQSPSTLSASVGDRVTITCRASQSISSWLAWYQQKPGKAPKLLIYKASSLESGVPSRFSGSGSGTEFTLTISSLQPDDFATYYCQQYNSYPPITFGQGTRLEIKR
B19: antibody 481 (antibody, V domains shown)
VH: EVQLVESGGGLIQPGGSLRLSCAASGFTVSSNYMSWVRQAPGKGLEWVSVIYSGGSTFYADSVKGRFTISRDNSKNTLYLQMNSLRAEDTAVYYCAREVAGTYDYWGQGTLVTVSS
VL: DIQMTQSPSSVSASVGDRVTITCRASQGISSWLAWYQQKPGKAPKLLIYAASSLQSGVPSRFSGSGSGTDFTLTISSLQPEDFATYYCQQANSFPGGTFGPGTKVDIKR
B20: antibody 489 (antibody, V domains shown)
VH: B5 VH with S103N
VL: not shown
B21: antibody 469 (antibody, V domains shown)
VH: QVQLVESGGGVVQPGRSLRLSCAASGFTFSSYGMHWVRQAPGKGLEWVAVIWYDGSNKYYADSVKGRFTISRDNSKNTLYLQMNSLRAEDTAVYYCARDLLSVGWSFDYWGQGTLVTVSS
VL: not shown
B22: antibody 468 (antibody, V domains shown)
VH: QVQLVESGGGVVQPGRSLRLSCAASGFTFSIYAMHWVRQAPGKGLEWVAVISYDGSNKYYADSVKGRFTISRDNSKNTLYLQMNSLRAEDTAVYYCAGSLPAGSYYYYYGMDVWGQGTTVTVSS
VL: B10 VL with V45L, D52E, S92N, Q97V, V98L, T101G, V105L, S106T
B23: antibody 458 (antibody, V domains shown)
VH: QVQLVESGGGVVQPGRSLRLSCAASEFTFATYAMHWVRQAPGKGLEWVALISQDGSNKHYADSVKGRFTISRDNSKNTLYLQMNSLRAEGTAIYYCARESLEAAGPPFDYWGQGTLVTVSS
VL: SYELTQPPSVSVSPGQTATIICSGDKLGEKYASWYQQKPGQSPALVIYQDRKRPSGIPERFSGSNSGNTATLTISGTQAMDEADYYCQAWDSSNSVVFGGGTKLTVP

The binders below were run against T1, SARS-CoV-2 spike protein (SARS-CoV-2, UniProt P0DTC2 14-1208) (assay: HT-SPR, Carterra LSA; mAb coupled to chip, antigen injected; 1:1 fit).
T1 construct: also called SARS-CoV-2 S protein; antigen of interest

Point of comparison: B2, Kd 395 pM. Against it:
- B1 — within 1.5-fold, 430 pM
- B3 — lower, ≤ 229 pM
- B4 — within 1.5-fold, 523 pM
- B5 — 4-fold lower, 99.6 pM
- B6 — 2.7-fold lower, 144 pM
- B7 — 5.8-fold lower, 68.5 pM
- B8 — 110-fold higher, 44200 pM
- B9 — 6.3-fold higher, 2490 pM
- B10 — 10-fold lower, 39.3 pM
- B11 — 22-fold higher, 8780 pM
- B12 — within 1.5-fold, 509 pM
- B13 — 5.5-fold higher, 2190 pM
- B14 — 3.1-fold lower, 129 pM
- B15 — 3.7-fold lower, 107 pM

Point of comparison: B12, koff 0.000285 s⁻¹. Against it:
- B1 — 2.5-fold lower, 0.000114 s⁻¹
- B2 — 6.9-fold lower, 4.15e-05 s⁻¹
- B3 — lower, ≤ 1e-05 s⁻¹
- B4 — within 1.5-fold, 0.00021 s⁻¹
- B5 — 11-fold lower, 2.62e-05 s⁻¹
- B6 — 8.5-fold lower, 3.35e-05 s⁻¹
- B7 — 10-fold lower, 2.75e-05 s⁻¹
- B8 — 4.7-fold higher, 0.00134 s⁻¹
- B9 — within 1.5-fold, 0.000269 s⁻¹
- B10 — 28-fold lower, 1.01e-05 s⁻¹
- B11 — within 1.5-fold, 0.000261 s⁻¹
- B13 — within 1.5-fold, 0.000209 s⁻¹
- B14 — 8.1-fold lower, 3.5e-05 s⁻¹
- B15 — 7.2-fold lower, 3.94e-05 s⁻¹

Point of comparison: B11, kon 29800 M⁻¹ s⁻¹. Against it:
- B1 — 8.9-fold higher, 266000 M⁻¹ s⁻¹
- B2 — 3.5-fold higher, 105000 M⁻¹ s⁻¹
- B3 — within 1.5-fold, 43600 M⁻¹ s⁻¹
- B4 — 13-fold higher, 401000 M⁻¹ s⁻¹
- B5 — 8.8-fold higher, 263000 M⁻¹ s⁻¹
- B6 — 7.8-fold higher, 233000 M⁻¹ s⁻¹
- B7 — 13-fold higher, 401000 M⁻¹ s⁻¹
- B8 — within 1.5-fold, 30200 M⁻¹ s⁻¹
- B9 — 3.6-fold higher, 108000 M⁻¹ s⁻¹
- B10 — 8.7-fold higher, 258000 M⁻¹ s⁻¹
- B12 — 19-fold higher, 560000 M⁻¹ s⁻¹
- B13 — 3.2-fold higher, 95400 M⁻¹ s⁻¹
- B14 — 9.1-fold higher, 271000 M⁻¹ s⁻¹
- B15 — 12-fold higher, 367000 M⁻¹ s⁻¹

What follows are binders tested against SARS-CoV-2 spike protein (SARS-CoV-2, UniProt P0DTC2 14-1208) (assay: not given).

Point of comparison: B18, Kd 9310 pM. Against it:
- B16 — within 1.5-fold, 6970 pM
- B17 — 2.4-fold lower, 3920 pM
- B19 — 34-fold lower, 273 pM
- B20 — 29-fold lower, 317 pM
- B21 — 70-fold lower, 133 pM
- B22 — 20-fold lower, 463 pM
- B23 — 28-fold lower, 334 pM

Point of comparison: B22, koff 3.67e-05 s⁻¹. Against it:
- B16 — 1.7-fold higher, 6.06e-05 s⁻¹
- B17 — 10-fold higher, 0.000377 s⁻¹
- B18 — 32-fold higher, 0.00117 s⁻¹
- B19 — within 1.5-fold, 2.96e-05 s⁻¹
- B20 — within 1.5-fold, 4.85e-05 s⁻¹
- B21 — 2.3-fold higher, 8.39e-05 s⁻¹
- B23 — 2.4-fold higher, 8.87e-05 s⁻¹

Point of comparison: B22, kon 79200 M⁻¹ s⁻¹. Against it:
- B16 — 9.1-fold lower, 8700 M⁻¹ s⁻¹
- B17 — within 1.5-fold, 96300 M⁻¹ s⁻¹
- B18 — 1.6-fold higher, 125000 M⁻¹ s⁻¹
- B19 — within 1.5-fold, 109000 M⁻¹ s⁻¹
- B20 — 1.9-fold higher, 153000 M⁻¹ s⁻¹
- B21 — 8-fold higher, 630000 M⁻¹ s⁻¹
- B23 — 3.4-fold higher, 266000 M⁻¹ s⁻¹
